This experiment addresses T1, human NOTCH3 extracellular domain (human, UniProt Q9UM47 40-1643).
T1 construct: In the tissue IHC the target is endogenous NOTCH3 in tumor sections; also called NOTCH3 ECD
Nature of the experiment: screening by FACS, Western blot and IHC on FFPE pellets of HEK-293 cells transiently transfected with NOTCH ECD constructs. An excerpt: Screening was first done by FACS, followed by Western blot analyses and then in IHC assays using HEK-293 cells transiently transfected with NOTCH1, NOTCH2, NOTCH3, or NOTCH4 ECD constructs. Starting with 68 supernatants from hybridoma cells, seven candidate antibodies were selected for further testing and optimization in IHC assays, 122M23, 122M25, 122M26, 122M27, 122M35, 122M36, and 122M40. […] The desired antibody needed to be specific for NOTCH3 ECD, so the staining had to be predominantly membrane localized, with minimal or no detectable background non-specific staining in transiently transfected cell pellets in FFPE format. In addition, the antibody had to give appropriate results on positive and negative control tissues.

The source of these data is US20170023576A1 (ONCOMED PHARMACEUTICALS, published 2017).

T1 sequence (Q9UM47 40-1643 limits assumed): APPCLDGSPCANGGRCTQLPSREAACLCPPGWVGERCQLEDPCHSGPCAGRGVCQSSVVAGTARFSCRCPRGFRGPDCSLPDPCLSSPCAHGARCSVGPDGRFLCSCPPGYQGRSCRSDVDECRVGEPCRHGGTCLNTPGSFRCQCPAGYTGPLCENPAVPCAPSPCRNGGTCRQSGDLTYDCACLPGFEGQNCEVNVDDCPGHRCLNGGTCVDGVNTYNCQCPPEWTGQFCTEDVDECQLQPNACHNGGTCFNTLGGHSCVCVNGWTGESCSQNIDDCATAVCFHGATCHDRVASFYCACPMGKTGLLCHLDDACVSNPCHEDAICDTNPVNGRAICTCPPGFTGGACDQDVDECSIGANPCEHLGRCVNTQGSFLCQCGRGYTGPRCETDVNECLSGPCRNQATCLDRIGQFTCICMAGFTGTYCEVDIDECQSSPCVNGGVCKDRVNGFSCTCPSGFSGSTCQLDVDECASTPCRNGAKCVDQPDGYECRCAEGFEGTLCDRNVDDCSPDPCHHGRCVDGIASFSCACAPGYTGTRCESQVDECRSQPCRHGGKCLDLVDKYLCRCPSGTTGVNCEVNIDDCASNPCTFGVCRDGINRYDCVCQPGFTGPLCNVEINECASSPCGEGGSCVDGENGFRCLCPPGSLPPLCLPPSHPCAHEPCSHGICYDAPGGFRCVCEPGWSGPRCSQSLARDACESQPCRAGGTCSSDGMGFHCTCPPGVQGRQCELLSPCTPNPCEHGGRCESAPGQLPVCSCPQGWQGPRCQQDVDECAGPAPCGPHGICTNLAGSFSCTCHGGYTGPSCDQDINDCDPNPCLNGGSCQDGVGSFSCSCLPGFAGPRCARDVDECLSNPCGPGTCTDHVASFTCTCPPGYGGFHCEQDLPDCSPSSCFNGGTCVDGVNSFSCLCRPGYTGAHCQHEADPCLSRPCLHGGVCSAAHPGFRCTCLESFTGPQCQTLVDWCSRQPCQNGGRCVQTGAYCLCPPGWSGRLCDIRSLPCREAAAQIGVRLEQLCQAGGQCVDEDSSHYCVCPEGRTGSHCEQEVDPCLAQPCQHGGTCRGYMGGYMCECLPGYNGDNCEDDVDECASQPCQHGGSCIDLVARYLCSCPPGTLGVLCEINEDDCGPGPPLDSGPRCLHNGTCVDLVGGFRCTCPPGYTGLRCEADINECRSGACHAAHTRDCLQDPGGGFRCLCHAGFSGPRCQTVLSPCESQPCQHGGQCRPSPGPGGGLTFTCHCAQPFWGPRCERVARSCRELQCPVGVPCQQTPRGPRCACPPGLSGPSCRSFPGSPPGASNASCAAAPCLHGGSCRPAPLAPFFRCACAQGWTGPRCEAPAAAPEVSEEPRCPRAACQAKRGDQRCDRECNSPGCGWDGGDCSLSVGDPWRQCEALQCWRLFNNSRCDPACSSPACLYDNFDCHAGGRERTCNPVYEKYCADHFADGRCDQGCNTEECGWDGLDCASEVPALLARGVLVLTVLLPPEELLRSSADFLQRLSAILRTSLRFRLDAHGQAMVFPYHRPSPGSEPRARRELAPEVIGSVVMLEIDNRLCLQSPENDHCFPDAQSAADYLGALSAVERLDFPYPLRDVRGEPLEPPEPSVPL

B1: anti-NOTCH3 antibody 122M23 (antibody, V domains shown)
VH: QVQLQQSGAELARPGASVKMSCKASGYTFTKYTIHWVAQKPGQGLEWIGYINPSNDYTNYNQTFKDKATLTADKSSTTAYMQLISLTSADSTVFYCARGTTPYSLDYWGQGTSVTVSS
VL: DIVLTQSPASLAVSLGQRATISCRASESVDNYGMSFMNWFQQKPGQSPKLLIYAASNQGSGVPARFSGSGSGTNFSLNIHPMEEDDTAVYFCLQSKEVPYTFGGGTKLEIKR
notes: Murine monoclonal antibody from a hybridoma (ATCC PTA-121154); also called murine monoclonal antibody 122M23
As to B1, the binding result is given as “binds”.
